Assay results reported in publication PMC6120983, “Chimeric Proteins Containing MAP-1 and Functional Domains of C4b-Binding Protein Reveal Strong Complement Inhibitory Capacities” (Frontiers in Immunology, 2018).
Like-named read-outs stand apart in the source and are kept apart here. Values belong to the molecule of their own block, whether it stands above or below them.

B2: C4BP^1−5:MAP-1 (other)
chain: NCGPPPTLSFAAPMDITLTETRFKTGTTLKYTCLPGYVRSHSTQTLTCNSDGEWVYNTFCIYKRCRHPGELRNGQVEIKTDLSFGSQIEFSCSEGFFLIGSTTSRCEVQDRGVGWSHPLPQCEIVKCKPPPDIRNGRHSGEENFYAYGFSVTYSCDPRFSLLGHASISCTVENETIGVWRPSPPTCEKITCRKPDVSHGEMVSGFGPIYNYKDTIVFKCQKGFVLRGSSVIHCDADSKWNPSPPACEPNSCINLPDIPHASWETYPRPTKEDVYVVGTVLRYRCHPGYKPTTDEPTTVICQKNLRWTPYQGCEAHTVELNNMFGQIQSPGYPDSYPSDSEVTWNITVPDGFRIKLYFMHFNLESSYLCEYDYVKVETEDQVLATFCGRETTDTEQTPGQEVVLSPGSFMSITFRSDFSNEERFTGFDAHYMAVDVDECKEREDEELSCDHYCHNYIGGYYCSCRFGYILHTDNRTCRVECSDNLFTQRTGVITSPDFPNPYPKSSECLYTIELEEGFMVNLQFEDIFDIEDHPEVPCPYDYIKIKVGPKVLGPFCGEKAPEPISTQSHSVLILFHSDNSGENRGWRLSYRAAGNECPELQPPVHGKIEPSQAKYFFKDQVLVSCDTGYKVLKDNVEMDTFQIECLKDGTWSNKIPTCKKNEIDLESELKSEQVTE

What was measured:
[1] = molecular target: T1, recombinant MBL (UniProt P11226 21-248)
T1 sequence (P11226 21-248): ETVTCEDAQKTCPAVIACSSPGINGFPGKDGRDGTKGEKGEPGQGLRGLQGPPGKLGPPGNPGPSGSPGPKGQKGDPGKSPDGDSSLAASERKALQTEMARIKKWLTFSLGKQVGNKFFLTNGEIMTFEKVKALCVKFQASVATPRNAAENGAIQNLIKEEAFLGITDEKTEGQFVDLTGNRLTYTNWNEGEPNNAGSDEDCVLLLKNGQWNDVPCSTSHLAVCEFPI

[2] = molecular target: MAP-1:C4BP^1−5 (human) (UniProt P48740); assay: SEC; 50 μg on Superdex 200 HR 10/30, 0.5 ml/min, TBS/Ca^2+ (5 mM CaCl2); fractions checked by sandwich ELISA (anti-C4BP capture, anti-MAP-1 detection)
[3] = molecular target: T1, recombinant MBL; assay: ELISA; rMBL or rCL-11 (2 μg/ml) held on mannan-coated wells; serial dilutions of the proteins from 13.5 nM in TBS/Tween/Ca^2+ (5 mM CaCl2), 2 h; detected with biotinylated anti-MASP-1/-3/MAP-1 mAb 8B3; Kd = concentration at half of the maximum binding, fit specific binding with Hill slope, Bmax shared
[4] = molecular target: T2, recombinant CL-11 (UniProt Q9BWP8 26-271); assay: as above
T2 construct: collectin-11 (CL-11, CL-K1); Held on mannan-coated wells in the ELISA; also called rCL-11; collectin-11; source: produced in house
T2 sequence (Q9BWP8 26-271): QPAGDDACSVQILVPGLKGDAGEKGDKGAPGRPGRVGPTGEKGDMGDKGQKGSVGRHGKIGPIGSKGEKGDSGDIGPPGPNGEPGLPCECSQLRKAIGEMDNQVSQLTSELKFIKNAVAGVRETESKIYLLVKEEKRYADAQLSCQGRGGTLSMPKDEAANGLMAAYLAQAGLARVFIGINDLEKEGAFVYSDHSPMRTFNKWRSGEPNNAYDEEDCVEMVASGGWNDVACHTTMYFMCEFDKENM

[5] = molecular target: T1, recombinant MBL; assay: cell-based or functional assay
[6] = molecular target: B2; assay: SEC; 50 μg on Superdex 200 HR 10/30, 0.5 ml/min, TBS/Ca^2+ (5 mM CaCl2); fractions checked by sandwich ELISA (anti-C4BP capture, anti-MAP-1 detection); details: both partners purified

IC50 of C3 deposition (ELISA; inhibitor pre-incubated on mannan-bound rMBL, then 2% MBL defect serum) [1]: 0.36 nM | IC50 of C4 deposition (ELISA; inhibitor pre-incubated on mannan-bound rMBL, then 2% MBL defect serum) [1]: 0.45 nM | IC50 of TCC deposition (ELISA; inhibitor pre-incubated on mannan-bound rMBL, then 2% MBL defect serum) [1]: 0.17 nM | stoichiometry N [2]: 2 | Kd [3]: 0.35 nM | Kd [4]: 1.97 nM
Molecule: MAP-1:C4BP^1−5 (from UniProt P48740-3 20-380)

IC50 of C3 deposition (ELISA; inhibitor pre-incubated on mannan-bound rMBL, then 2% MBL defect serum) [5]: 3.35 nM | IC50 of C4 deposition (ELISA; inhibitor pre-incubated on mannan-bound rMBL, then 2% MBL defect serum) [5]: 0.14 nM | IC50 of TCC deposition (ELISA; inhibitor pre-incubated on mannan-bound rMBL, then 2% MBL defect serum) [5]: 0.46 nM
B1: recombinant MAP-1 (natural protein, human, UniProt P48740-3 20-380, looked up)
chain: HTVELNNMFGQIQSPGYPDSYPSDSEVTWNITVPDGFRIKLYFMHFNLESSYLCEYDYVKVETEDQVLATFCGRETTDTEQTPGQEVVLSPGSFMSITFRSDFSNEERFTGFDAHYMAVDVDECKEREDEELSCDHYCHNYIGGYYCSCRFGYILHTDNRTCRVECSDNLFTQRTGVITSPDFPNPYPKSSECLYTIELEEGFMVNLQFEDIFDIEDHPEVPCPYDYIKIKVGPKVLGPFCGEKAPEPISTQSHSVLILFHSDNSGENRGWRLSYRAAGNECPELQPPVHGKIEPSQAKYFFKDQVLVSCDTGYKVLKDNVEMDTFQIECLKDGTWSNKIPTCKKNEIDLESELKSEQVTE

Molecule: B2
IC50 of C3 deposition (ELISA; inhibitor pre-incubated on mannan-bound rMBL, then 2% MBL defect serum) [5]: 7.72 nM | IC50 of C4 deposition (ELISA; inhibitor pre-incubated on mannan-bound rMBL, then 2% MBL defect serum) [5]: 1.2 nM | IC50 of TCC deposition (ELISA; inhibitor pre-incubated on mannan-bound rMBL, then 2% MBL defect serum) [5]: 0.92 nM | Kd ([3]; both partners purified): 0.56 nM

stoichiometry N [6]: 2 | Kd ([4]; both partners purified): 5.49 nM
B3: C4BP^1−5:MAP-1 (other)
chain: NCGPPPTLSFAAPMDITLTETRFKTGTTLKYTCLPGYVRSHSTQTLTCNSDGEWVYNTFCIYKRCRHPGELRNGQVEIKTDLSFGSQIEFSCSEGFFLIGSTTSRCEVQDRGVGWSHPLPQCEIVKCKPPPDIRNGRHSGEENFYAYGFSVTYSCDPRFSLLGHASISCTVENETIGVWRPSPPTCEKITCRKPDVSHGEMVSGFGPIYNYKDTIVFKCQKGFVLRGSSVIHCDADSKWNPSPPACEPNSCINLPDIPHASWETYPRPTKEDVYVVGTVLRYRCHPGYKPTTDEPTTVICQKNLRWTPYQGCEAHTVELNNMFGQIQSPGYPDSYPSDSEVTWNITVPDGFRIKLYFMHFNLESSYLCEYDYVKVETEDQVLATFCGRETTDTEQTPGQEVVLSPGSFMSITFRSDFSNEERFTGFDAHYMAVDVDECKEREDEELSCDHYCHNYIGGYYCSCRFGYILHTDNRTCRVECSDNLFTQRTGVITSPDFPNPYPKSSECLYTIELEEGFMVNLQFEDIFDIEDHPEVPCPYDYIKIKVGPKVLGPFCGEKAPEPISTQSHSVLILFHSDNSGENRGWRLSYRAAGNECPELQPPVHGKIEPSQAKYFFKDQVLVSCDTGYKVLKDNVEMDTFQIECLKDGTWSNKIPTCKKNEIDLESELKSEQVTE
modifications: (Gly4Ser)3 linker between C4BP CCP1-5 and MAP-1 left out of the pieces; CCP1-5 limits from Sushi 1-5 features; MAP-1 (MAp44, NM_001031849.2) is the 380-aa MASP1 isoform, signal peptide 1-19 removed …
